Assay: soluble fraction after stress (log2 fold change); higher = more stays soluble; pooled small domains, quantitative proteomics
Settings: stress: 75 degC
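Note: 20 min heating vs room temperature control held 20 min.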

Sequence | soluble fraction (log2)
HMKGVSFEEIERAVRTAQNPEADETAQQHAGMVFSRMEGNELFDKLVQSSSTIGKKITGLMDYYL | -0.239
HMKGYIGESKARNIALKKAPGASITKFEFDKDDGIAVYEVELRKGIYEYELKINAVTGAIIEFEKDIE | -2.2
HMKHKYWEIKERIKKDILNEVYKKGESIPSERDLAGIYDVTRVTVQKAMAMLVQEGYIERIHGKGMFVLKN | -2.32
HMKHRFVVGEVLSIGKLQHEITLKTAQGERKFQLDKQDLPASIQDGAKVRAELNEAGRVIDVHPLK | -0.0848
HMKHYMKITDISLQTRDKNRVNVSVDGKYRFSLDVFQVGELGLKVGREYTDEELTALEDESQFG | -1.11
HMKIATIELVKEAVKSKLGKFTKRDIMELVPSVGKTTIENMLKQLIGEGYIERHGKGRATFYVK | -0.761
HMKIDANTFTSIEKQLFVLLSKTPTPMGSIFVALAKEDKEAVWEVIHFLEAENRLIMNEDGTIQL | -2.14
HMKIDEVSFAYIERTLFSMLGKLPTPVNKVIATIGEEKKETIWEVIRFLESENKLITNEDGTLQL | -2.46
HMKIDNIIIYITGGVKKEGVYELPDGSRISDAIEQAEGLKANADTSSINLAYKLEDGMKIKIPLQGEN | -0.181
HMKIDNPEYQKIMDMIPYFFQTRNYDEAIEALSYVIEQEPSFSEAYNKRATFYFMMGDFENSMKDIESTLA | -0.288
HMKIEEVIEKLKTDSIISRKEYEDIVRQINPNLSDRTIFWQLAKLQDMGVLQKIGQNSFHVRN | -0.183
HMKIERKGDESYLSFVERATSALSDGLIDYQQWGRAVVGEDLYSEENTRRIAKFFAQFIQNLEND | -2.62
HMKIKAKYTTDFGIRIYAPKPGKNYWRISYVDLDGKLRDTTATSEKTALDKSAEIEVLLRNN | -2.2
HMKILALETSAKAVSAAVSENGRILASGYQDTGLTHSRTLMPIVEHILKNTDLKLSDMDAIAVAVGPG | 0.144
HMKIMSLSERHQKILELLKVNGIVSVNSLSRQLNVSSVTIRKDLGLLEEKKLLYRSHGGAIQID | -3.35
HMKINYNEFLRRFLGEKEGDIIEMETGKRIGTHKGYWFHTIGQRKGLGLGGGPWFVIRKDIDENIIYVSHG | -1.3
HMKIPGIGDVYAILARVYSGPQFTWIEAGFPEDDTKAYSYLHTAIRKGSAIAILQAMRTSGALTPTIEKE | -0.0245
HMKIPPIMFVRAIMVAGRQSMAIMDIEGVGTGIIVRSGYSFSNGEGKVVRIGPDKVTVNWSGKHLDLAPG | -3.8
HMKIPQFAVIKQYLEQQIKTAQWAPGRQIPTEQSLADTFSVSRMTARRAVQQLADAGLLERTQGSGTFVAD | -0.162
HMKISDTITEKILTDNNFSMELAKKIGIQQGSLLSSIRRNRDSRILRLWEAVMFYKEQGYTEEEIFTDY | -2.61
HMKISELAKKVIASGRVTQWAKHPHIYFVNGMRKVAIELDVNGVFSISMRYYPYDPADRELVENLIRGD | -2.67
HMKIVQHQLQLPVHVAGKFKGMFYKSDFVMSEDYDDDGNMILAVRLPLVDWNKFLKRTDNELSQYIKVTP | -1.64
HMKKALTAEQEARVRELYFRGINYYSANRYQDAIAEWRKVLAIDPNHEKAKNNIRQTLILLK | -1.26
HMKKDNLKKIKSIDEDIENELFKLGIYHFEQISIWSSKNAEWIENFLNLPNYVRANQWVEQAKILK | -1.57
HMKKDRKKMLKEGIVLFEKILRGMELSPTSEPLKKVLTSFNIQNKEDLYVKLGAGVISSEEVIKELKKK | -0.0286
HMKKILIVTNRSAGMVVYTIPEEGIRREFTPGETKKIPFEELEKLAYLSGGRTLMENFLKIVDTETTEELG | -2.24

Sequence | soluble fraction (log2)
HMKKIYEEVSEAILTMIKNGTLKPGDKLLPVHQLAEQFQVGRSAVREALSALRAMGLIEMKQGEGTYVKNF | -1.52
HMKKKVDSENLLLDILKQMQPQASTNVLRKMLTNQRISVDDQIIHRAKHVVQEGQTVEIHPKP | -0.0451
HMKKLPEKFDYNEISGLRIEAQQKLNEFQPLNIGQASRISGVTPADISVLLVYLEQLKYSNPDLFFKLNPD | -1.52
HMKKLTAEEIQEAKDILEKIQEIPNFKKIFGDDTIKALENSTKTGVLLPDNIISKIHTLMIRFGIK | -0.202
HMKKMEEEFALFNAWVDRRLGIPLAAYKENQMQRRILTIMENSGAKTLREYQQLIEGDEGVRAAFLAHIT | -2.15
HMKKPIYLTIANDIEKKIFNNDYPKNERLPSERNLAEEYGVTRMTIRNSIEYLVSKGLLEKRLGSGNYVKR | -1.55
HMKKPLEYIDVDKREDFPPVPNGMRYIHFYGGTKNYRAYIAPEDISRADFMEQYPEYVPEHN | 0.237
HMKKSTLLLFFLKELLEGKKISLKSFALENDINIRTAQRYIEDIEEAFPDNLLKENDFYSFV | -2.89
HMKKTETVRFTTNVTHGTKIKETDVEVVKISNSALPDKVVKNKTEVIGKYATADLFKGDFATENKVTD | 0.142
HMKKTIIVHVVGEVNTPGIVELNEGARIIDAINGAGGKTEEADMSKINLAYVIEDGSQIYVPSIYE | -0.387
HMKKTITISNYINVRDFATMSELPVNSILSVLMKNGIFVSLNEKIDFDTAWLVGSELGLEVKQKQG | -1.58
HMKKYEFIEDLPGVGPATAQKLRDLGYHTVESLAMATARELEPIGVGEKKAFSMIEAARSAIGFS | 0.284
HMKKYISEEQAKQAALETAGGGSVVKIKFTTDDGIKVYEIDIINGNYEYEITVHAETGKILDVDKERIH | -1.6
HMKLELSNDFYNKIRLARKENGLTQEDLAEKLNMKVGVIQKIENGVRQTDSNLMKISKFLGVEIYVE | -1.98
HMKLPNGYGGIAKLSGKRRNPWRVRVTKGWSVDEQTGKAKQLFSTLGYYPTRKDALAALSAYNQNP | -1.64
HMKLRLGVNIDPVATVRNARGSAYPDPVRAAIIAQEAGADGITAHLREDRRHIVDQDITSIIKAIDIPLNF | -0.129
HMKLRSIQEQVQYLEKVDNQKAMQIILNMNDKASAVQILRNMKKEKAAAILAQMDPLQAAQILEDLA | -0.34
HMKLSDDIIVDTIKEIIEENKNMIEQRKMGAMGPLMGKAMAKFKGKADGQTVSNVIKDEILNIIN | -0.0773
HMKLSIEDLAAELIRKIEAGDIGNEQGKMPSERELLAIYPVSRYTLRQALNKLSKMGWIYQMQGRGSYIRF | -1.48
HMKLSNELLNAIMLIKKGIRNPTSLAQRLNTDTQYAKNLLEHLKMTGLINEHSRLTSRGLDIFHQK | 0.356
HMKLTEEEFNAKRKAYLDRLETLNDEAVIKATFMEAASGLGLQKGSAEFGDLRKYFVDRIVDIK | 1.01
HMKLTEGETIFLNESDTADWKKIPGIGSVYASRIVKYRNLLGGFVSVNQLREVYGIDDELFAKIYPYI | 0.085
HMKLTESQLHKFTNDAVLAHIRNLIEFKGAFTEDDIEPIIRDRAAVYGIDLEDEDYKKVKTDVEYHFK | -0.0402
HMKLVELVGSPKQIAWAEDIRKNMISYLSALVRKYEAENRPARAEKRAKDMEILSNIKEASWFIENRS | -0.733
HMKMAKTIKEIAEEIGVSKQAVFKKIKQVPLSTEIEKFISTVDGKKLVSVDGENLIKQAFQR | 0.355
HMKMLKAPIPGTIIEVKVNPGQTVNDGDVAVVLEAMKMESDIHFNSSGKVKKIHVNKGDSVQEGDDLIELE | 0.0235

Sequence | soluble fraction (log2)
HMKMNRELNQRQIKMLDYLSVNPKTTRKQYTKMMGISFMTSYRDIQELIDKAYIISKGQGRGTYYILAN | -0.709
HMKMQIGEIIRKYRKSNHMTQEEMAERLGVSAPAVNKWENGNSMPDIMLLAPITRLLGISLDELLSFE | -2.26
HMKMSVEEVNLSPRTTNALINNDIKTMKDLVALTDTELRDLKGFGSKAYEEVKEKLSELGLSTQ | 0.503
HMKMSVKNEIISLLEKNRDTSISGQVIADSLNVTRAAVWKAIKVLKEEGYNIDGTPNKGYILLGNN | -1.22
HMKMTFGENLHKLRKIYRLSQEDVASAINLKRSDIAAVEKGDRVLNDEELDKLADFIGIDIVDLL | -0.479
HMKMVSTPTGTRISLTQVKEFISNASFDDMKEILLEVLAWFKAHNLGNPFNYNRAFEFIVAH | -0.256
HMKNELNSKLIISIKEALPPQIKVATYLMDLLSLGREAVYRRIRGDVSFDLEELSIISKALNISIDDVL | -3.9
HMKNESLMLPRDIDYSRVHGLSNEAIQKLQDALPQSLGQASRIEGITPATLSLLLLYLKKNNKRI | -0.00281
HMKNHSTFKSVLSNIEFPINERISGHAIQNPILGLIKADHPNFSSDQYIAISELNFYREKYISNYLLTEI | -3.67
HMKNKIYGTIVSSTSGEETVYKVFQVDSSKDITYLFRPDMIRLAHENNQALEFNEETGRGKRIEMSDLPK | -0.106
HMKNLHLVPNVVGMSAKEAKNTLKSFNIKYKPIYGSSNKYDENYIFNQNPRKGKTIKEQEVVTIYISRGAD | -1.42
HMKNNNIIFSEFLKEVENGRVVEVRIQGNNIQGIMSNGKEFTTYSPNYPNLIEKLTETGVSISAAPL | 0.434
HMKNPLIIGMTKDKIIELIGMPDNIKFLDSSLSKSEVWNYDKFGKKLYIKDEKLYQIENIEE | 0.0985
HMKNSAAKETILAFLKKNGGELFTQMQIIEKFQKMIPAPVLRITLEELLNKGQVEITSKGKYYLSVKGS | -2.08
HMKNSKIVIQKRHNHILELLKQNRTMDVTVLAERLGVTGATIRRDLKKLEQEGTIVRSFGKVSFVG | -2.18
HMKNTVGEYRKLKSTTILYSNSDLTGTKYTYLPNTTVKILKNISSTVDYVYIKATNRYAYINIYAYT | -2.69
HMKNVENIILEQLKKNIYDDLNNASFEEIILIDAEKSIYKGTIKANYIEYNFKINLSTGEILKWKLK | -1.95
HMKNVSVKMILSPESLGEIQVDLVFSKGKDLEIMLRPETAEVAKLIQSNSASLREQLSLEHKGPLSLNVS | -0.32
HMKNYALHEPMMDRIAKVNALYDAGHTIKYMTARGAVSMVDYYDLTKSQLDSWGAKYHELSVGK | 0.12
HMKNYYEVLGVPRDAAAPDIKRAFRKLAKQFHPDHNPGDAKAEERFKLVSQAYDVLGDEEKRKLYDQFGE | 0.0891
HMKNYYSILGVTPDSSEAEIKSAYRRLARKFHPDVNPDGASRFKDISEAYETLSDAKKRFQYDTINGF | -0.0709
HMKPATSITFIPSERPDLVEQLSKITFDKKDSLYENYINLNWLTFEAISVYMREGDIIGFST | -0.148
HMKPDAAKREQLIDIALRLFSQQGIARTSLNAIAREAGVTPAMLHYYFNSREQLLDVMIEERFL | -3
HMKPDIETQLKKYRYKVSVSKKIKPYMVFSDKTLSELLTKSPTNLKELEDINGFGPVKVQEYGAAILEILK | -1.19
HMKPDSEFTSQDLWQNDLAGTGSAAYRRDKMGALLGIGYGNAKRFLERLNSYGVTRSEFDEALAQLGE | -0.188

From the domain aggregation screens of Martell et al. (2025)
